What was measured:
[1] = target: Pyruvate kinase M2 (PKM2), endogenous in NIH-3T3 cells (mouse (endogenous in NIH-3T3)) (UniProt P52480); experiment: cross-linking
[2] = target: Pyruvate kinase M2 (PKM2), endogenous in U251-iUS28 cells (human (endogenous in U251)) (UniProt P14618); experiment: cross-linking

Pyruvate kinase M2 (PKM2), endogenous in NIH-3T3 cells, P52480 1-531 (enzyme; other documents disagree on this pair), sequence (P52480 whole entry): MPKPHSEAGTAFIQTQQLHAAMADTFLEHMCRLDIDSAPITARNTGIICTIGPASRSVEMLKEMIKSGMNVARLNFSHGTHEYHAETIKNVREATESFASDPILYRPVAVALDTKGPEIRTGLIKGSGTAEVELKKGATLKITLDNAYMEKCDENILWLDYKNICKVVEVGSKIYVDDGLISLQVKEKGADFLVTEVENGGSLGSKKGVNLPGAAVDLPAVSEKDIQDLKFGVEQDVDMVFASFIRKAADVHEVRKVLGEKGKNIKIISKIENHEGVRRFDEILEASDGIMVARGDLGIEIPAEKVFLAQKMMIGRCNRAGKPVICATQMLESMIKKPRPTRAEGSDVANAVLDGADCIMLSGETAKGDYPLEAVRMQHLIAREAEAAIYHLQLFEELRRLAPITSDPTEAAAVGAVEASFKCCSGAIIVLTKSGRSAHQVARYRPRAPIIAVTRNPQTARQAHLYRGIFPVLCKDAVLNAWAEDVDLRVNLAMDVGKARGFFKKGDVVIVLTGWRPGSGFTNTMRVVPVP
Pyruvate kinase M2 (PKM2), endogenous in U251-iUS28 cells, P14618 1-531 (enzyme; other documents disagree on this pair), sequence (P14618 whole entry): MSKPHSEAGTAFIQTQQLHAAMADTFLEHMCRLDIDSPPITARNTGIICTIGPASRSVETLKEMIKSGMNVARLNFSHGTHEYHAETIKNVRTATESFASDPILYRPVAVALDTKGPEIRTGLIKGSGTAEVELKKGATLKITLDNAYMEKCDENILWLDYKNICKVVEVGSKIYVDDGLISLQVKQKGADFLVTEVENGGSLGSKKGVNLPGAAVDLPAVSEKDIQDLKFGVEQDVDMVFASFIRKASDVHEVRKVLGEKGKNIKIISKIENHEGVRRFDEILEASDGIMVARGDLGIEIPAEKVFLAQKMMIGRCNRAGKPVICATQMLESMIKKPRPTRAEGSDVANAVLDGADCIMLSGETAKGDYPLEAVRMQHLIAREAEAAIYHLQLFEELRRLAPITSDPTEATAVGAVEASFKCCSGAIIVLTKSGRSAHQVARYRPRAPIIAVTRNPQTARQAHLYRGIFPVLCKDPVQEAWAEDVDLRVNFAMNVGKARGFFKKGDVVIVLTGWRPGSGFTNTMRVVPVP

| stoichiometry N [1] | stoichiometry N [2] | Substance |
| --- | --- | --- |
| 2 |  | Pyruvate kinase M2 (PKM2), endogenous in NIH-3T3 cells, P52480 1-531 (enzyme; other documents disagree on this pair) |
|  | 2 | Pyruvate kinase M2 (PKM2), endogenous in U251-iUS28 cells, P14618 1-531 (enzyme; other documents disagree on this pair) |
